This is an account of results in US10253323B2, “Chloroplast transit peptides” (priority 2015, dated 2019).

Experiment [1] relates to Wildtype, non-transformed Arabidopsis thaliana c.v. Columbia. Nature of the experiment: Glyphosate response of non-transformed control Arabidopsis. It counts as in vivo. To be noted: WT (non-transformed control), 14 days after application. The method, then: (§1) The Arabidopsis T1 transformants (from transformation with pDAB114286 or pDAB114287) were first selected from the background of untransformed seed using a glufosinate selection scheme. Three flats or 50,000 seed were analyzed for each T1 construct. The selected T1 plants were molecularly characterized (as described above) and events with a range of copy number were sprayed with various rates of commercial glyphosate.
(§2) Transgenic T1 Arabidopsis plants containing the dgt-28 transgene were sprayed with differing rates of glyphosate. Elevated rates were applied in this study to determine the relative levels of resistance (420, 840, 1,680 or 3,360 g ae/ha). The typical 1× field usage rate of glyphosate is 1120 g ae/ha. The response of these plants is presented in terms of % visual injury 2 weeks after treatment (WAT). The T1 Arabidopsis plants that were used in this study were of variable copy number for the dgt-28 transgene. The low copy dgt-28 T1 Arabidopsis plants were self-pollinated and used to produce T2 plants.
(§3) An arithmetic mean and standard deviation is presented for each construct used for Arabidopsis transformation. The range in individual response is also indicated in the last column for each rate and transformation. Wildtype, non-transformed Arabidopsis thaliana c.v. Columbia served as a glyphosate sensitive control.

Experiment [2] deals with dgt-28 transformed T1 Arabidopsis. As to the kind of experiment: Glyphosate tolerance of dgt-28 transformed T1 Arabidopsis. The experiment is classed as in vivo, Arabidopsis thaliana. Particulars: 14 days after application. The procedure:
as §1, §2, §3

Where [3] appears, read: 420 g ae/ha glyphosate postemergence.
Where [4] appears, read: 840 g ae/ha glyphosate postemergence.
[5] abbreviates: 1680 g ae/ha glyphosate postemergence.
Setting [6] is: 3360 g ae/ha glyphosate postemergence.

On to `O=C(O)CNCP(=O)(O)O` [glyphosate], for which, in experiment [1] (420 g ae/ha postemergence), the “% Injury Analysis Ave” value is reported as 100.0%, the “% Injury Analysis Range (%)” value is reported as 100%, the “% Injury Range (No. Replicates) 20-40%” value amounted to 0 and the “% Injury Range (No. Replicates) <20%” value was found to be 0. The “% Injury Range (No. Replicates) >40%” value in experiment [1] (420 g ae/ha postemergence) is 4. Moreover, in experiment [1] (840 g ae/ha postemergence), the “% Injury Analysis Ave” value was determined as 100.0%, the “% Injury Analysis Range (%)” value is recorded as 100%, the “% Injury Range (No. Replicates) 20-40%” value amounted to 0 and the “% Injury Range (No. Replicates) <20%” value is listed as 0. Also, in experiment [1] (840 g ae/ha postemergence), the “% Injury Range (No. Replicates) >40%” value was 4. Besides, in experiment [1] (1680 g ae/ha postemergence), the “% Injury Analysis Ave” value turned out to be 100.0%, the “% Injury Analysis Range (%)” value is listed as 100%, the “% Injury Range (No. Replicates) 20-40%” value is recorded as 0 and the “% Injury Range (No. Replicates) <20%” value is 0. Moreover, in experiment [1] (1680 g ae/ha postemergence), the “% Injury Range (No. Replicates) >40%” value is given as 4. Moreover, in experiment [1] (3360 g ae/ha postemergence), the “% Injury Analysis Ave” value worked out at 100.0%, the “% Injury Analysis Range (%)” value came to 100%, the “% Injury Range (No. Replicates) 20-40%” value was determined as 0 and the “% Injury Range (No. Replicates) <20%” value was 0. In experiment [1] (3360 g ae/ha postemergence), the “% Injury Range (No. Replicates) >40%” value is on record as 4.

B1: TraP27::dgt-28: TraP27-dgt28 fusion gene (SEQ ID NO:28) in construct pDAB114287, expressed in T1 Arabidopsis (protein)
chain: MATFTRVCHTARKSFVSLSNSQANSPVSVRFLSLPMPAARPAVKSGVRLWGCRLSFKVSASARGMPALSLPGSKSITARALFLAAAADGVTTLVRPLRSDDTEGFAEGLVRLGYRVGRTPDTWQVDGRPQGPAVAEADVYCRDGATTARFLPTLAAAGHGTYRFDASPQMRRRPLLPLSRALRDLGVDLRHEEAEGHHPLTVRAAGVEGGEVTLDAGQSSQYLTALLLLGPLTRQGLRIRVTDLVSAPYVEITLAMMRAFGVEVAREGDVFVVPPGGYRATTYAIEPDASTASYFFAAAALTPGAEVTVPGLGTGALQGDLGFVDVLRRMGAEVSVGADATTVRGTGELRGLTANMRDISDTMPTLAAIAPFASAPVRIEDVANTRVKECDRLEACAENLRRLGVRVATGPDWIEIHPGPATGAQVTSYGDHRIVMSFAVTGLRVPGISFDDPGCVRKTFPGFHEAFAELRRGIGS
modifications: Trap27 DGT28 fusion coding sequence
Turning to B1, in experiment [2] (setting [3]), the “% Injury Analysis Ave” value turned out to be 19.0%, the “% Injury Analysis Range (%)” value was 10-30%, the “% Injury Range (No. Replicates) 20-40%” value was determined as 1 and the “% Injury Range (No. Replicates) <20%” value is listed as 3. Also, in experiment [2] (setting [3]), the “% Injury Range (No. Replicates) >40%” value is reported as 0. Besides, in experiment [2] (setting [4]), the “% Injury Analysis Ave” value was 15.8%, the “% Injury Analysis Range (%)” value is given as 10-20%, the “% Injury Range (No. Replicates) 20-40%” value turned out to be 1 and the “% Injury Range (No. Replicates) <20%” value came out at 3. Besides, the “% Injury Range (No. Replicates) >40%” value in experiment [2] (setting [4]) came out at 0. In experiment [2] (setting [5]), the “% Injury Analysis Ave” value worked out at 18.8%, the “% Injury Analysis Range (%)” value is 15-20%, the “% Injury Range (No. Replicates) 20-40%” value worked out at 3 and the “% Injury Range (No. Replicates) <20%” value came to 1. The “% Injury Range (No. Replicates) >40%” value in experiment [2] (setting [5]) is on record as 0. In addition, in experiment [2] (setting [6]), the “% Injury Analysis Ave” value was found to be 25.0%, the “% Injury Analysis Range (%)” value is reported as 25%, the “% Injury Range (No. Replicates) 20-40%” value amounted to 4 and the “% Injury Range (No. Replicates) <20%” value was 0. The “% Injury Range (No. Replicates) >40%” value in experiment [2] (setting [6]) was found to be 0.

B2: TraP26::dgt-28: TraP26-dgt28 fusion gene (SEQ ID NO:27) in construct pDAB114286, expressed in T1 Arabidopsis (protein)
chain: MAQVSMIPNAIQAPCSISLSKSQAGKSVRKVSLKPNQHAAWGLRRSGMRVGNPEVVVSASARGMPALSLPGSKSITARALFLAAAADGVTTLVRPLRSDDTEGFAEGLVRLGYRVGRTPDTWQVDGRPQGPAVAEADVYCRDGATTARFLPTLAAAGHGTYRFDASPQMRRRPLLPLSRALRDLGVDLRHEEAEGHHPLTVRAAGVEGGEVTLDAGQSSQYLTALLLLGPLTRQGLRIRVTDLVSAPYVEITLAMMRAFGVEVAREGDVFVVPPGGYRATTYAIEPDASTASYFFAAAALTPGAEVTVPGLGTGALQGDLGFVDVLRRMGAEVSVGADATTVRGTGELRGLTANMRDISDTMPTLAAIAPFASAPVRIEDVANTRVKECDRLEACAENLRRLGVRVATGPDWIEIHPGPATGAQVTSYGDHRIVMSFAVTGLRVPGISFDDPGCVRKTFPGFHEAFAELRRGIGS
modifications: Trap26 DGT28 fusion coding sequence
In the case of B2, in experiment [2] (setting [3]), the “% Injury Analysis Ave” value turned out to be 0.0%, the “% Injury Analysis Range (%)” value is reported as 0%, the “% Injury Range (No. Replicates) 20-40%” value is 0 and the “% Injury Range (No. Replicates) <20%” value turned out to be 4. Also, the “% Injury Range (No. Replicates) >40%” value in experiment [2] (setting [3]) worked out at 0. In experiment [2] (setting [4]), the “% Injury Analysis Ave” value worked out at 0.0%, the “% Injury Analysis Range (%)” value amounted to 0%, the “% Injury Range (No. Replicates) 20-40%” value is 0 and the “% Injury Range (No. Replicates) <20%” value is recorded as 4. The “% Injury Range (No. Replicates) >40%” value in experiment [2] (setting [4]) stood at 0. Also, in experiment [2] (setting [5]), the “% Injury Analysis Ave” value is recorded as 10.0%, the “% Injury Analysis Range (%)” value is given as 10%, the “% Injury Range (No. Replicates) 20-40%” value came to 0 and the “% Injury Range (No. Replicates) <20%” value stood at 4. Moreover, the “% Injury Range (No. Replicates) >40%” value in experiment [2] (setting [5]) came out at 0. In experiment [2] (setting [6]), the “% Injury Analysis Ave” value is reported as 16.3%, the “% Injury Analysis Range (%)” value is 15-20%, the “% Injury Range (No. Replicates) 20-40%” value was 1 and the “% Injury Range (No. Replicates) <20%” value is listed as 3. For the same molecule, the “% Injury Range (No. Replicates) >40%” value in experiment [2] (setting [6]) is listed as 0.
